Test results as given in patent US20090031441A1 (NATIONAL UNIVERSITY CORPORATION NAGOYA UNIVERSITY, published 2009).

Experiments:
[1] = target: T1, RGL1 (Arabidopsis DELLA protein), yeast two-hybrid prey in pGADT7 AD vector (Arabidopsis, UniProt Q9C8Y3 1-511); assay: yeast two-hybrid without GA (FIG. 11); member RGL1 named in the legend of FIG. 11
T1 construct: also called AtDELLA
T1 sequence (looked up): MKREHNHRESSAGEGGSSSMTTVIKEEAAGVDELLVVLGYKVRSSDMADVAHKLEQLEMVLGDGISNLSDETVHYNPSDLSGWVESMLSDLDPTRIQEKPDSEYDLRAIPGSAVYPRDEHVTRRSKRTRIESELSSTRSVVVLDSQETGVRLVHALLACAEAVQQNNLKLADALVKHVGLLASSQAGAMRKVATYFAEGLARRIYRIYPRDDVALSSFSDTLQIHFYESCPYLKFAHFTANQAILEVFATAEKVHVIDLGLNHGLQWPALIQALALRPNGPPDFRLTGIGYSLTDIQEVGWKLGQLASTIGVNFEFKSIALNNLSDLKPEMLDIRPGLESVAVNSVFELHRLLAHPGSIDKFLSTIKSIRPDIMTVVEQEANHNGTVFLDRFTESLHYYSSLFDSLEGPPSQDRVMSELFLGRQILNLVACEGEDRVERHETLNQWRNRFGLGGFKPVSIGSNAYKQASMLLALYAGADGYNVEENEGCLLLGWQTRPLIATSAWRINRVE
Description: (§1) Arabidopsis has five DELLA proteins (RGA, GAI, RGL1, RGL2, and RGL3; collectively designated AtDELLA; Fleet, C. M., and Sun, T.-P. (2005) Curr. Opin. Plant Biol., 8, 77-85; Dill, A., and Sun, T. (2001) Genetics, 159, 777-785); therefore, there are 15 possible combinations of GID1/DELLA proteins. To verify the positive interactions between AtGID1-AtDELLA, two experiments were conducted using the yeast two hybrid (Y2H) system. In the first experiment (Assay A), a viable colony assay using a defined medium in which only positive clones would survive was carried out. In the second experiment (Assay B), β-galactosidase activity was measured, as reporter gene product of AtGID1-AtDELLA interactions.
(§2) BD Matchmaker Two-hybrid System 3 (Clontech, Palo Alto, Calif., USA; now part of Takara Bio) was used in the Y2H experiments. After confirming the PCR products of the AtGID1 genes by sequencing, PCR products were cloned into pGBKT7 DNA-BD shuttle vector to construct bait plasmids. […]
(§3) Thus, GA₄ (10⁻⁵ M) was used and added to the medium. […] As described above, all AtGID1-AtDELLA interactions were detected in a GA-dependent manner; however, interactions between AtGID1b and some AtDELLAs were detected, albeit weakly, in the absence of GA (FIG. 11).

[2] = target: T2, GAI (Arabidopsis DELLA protein), yeast two-hybrid prey in pGADT7 AD vector (Arabidopsis, UniProt Q9LQT8 1-533); assay: yeast two-hybrid without GA (FIG. 11); member GAI named in the legend of FIG. 11
T2 construct: also called AtDELLA
T2 sequence (looked up): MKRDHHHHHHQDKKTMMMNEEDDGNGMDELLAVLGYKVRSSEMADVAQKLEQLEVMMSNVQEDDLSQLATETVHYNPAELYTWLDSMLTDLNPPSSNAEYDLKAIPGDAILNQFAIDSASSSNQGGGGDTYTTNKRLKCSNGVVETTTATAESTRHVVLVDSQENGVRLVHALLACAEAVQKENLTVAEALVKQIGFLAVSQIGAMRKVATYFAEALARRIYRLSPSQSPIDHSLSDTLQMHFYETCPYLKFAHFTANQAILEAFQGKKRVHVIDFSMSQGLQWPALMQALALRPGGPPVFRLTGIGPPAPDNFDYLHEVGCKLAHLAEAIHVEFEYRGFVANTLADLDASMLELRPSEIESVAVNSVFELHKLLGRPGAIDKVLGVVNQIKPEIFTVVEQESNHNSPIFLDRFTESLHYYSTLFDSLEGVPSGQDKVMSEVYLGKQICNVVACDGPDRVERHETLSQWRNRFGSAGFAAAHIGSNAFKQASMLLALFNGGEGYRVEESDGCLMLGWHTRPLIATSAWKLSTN
Description: as §1, §2, §3

- binding result [1]: binds
- binding result [2]: binds
B1: AtGID1b (At3g63010), yeast two-hybrid bait in pGBKT7 DNA-BD vector (receptor, not shown: small tags and cut ends)
chain: MAGGNEVNLNECKRIVPLNTWVLISNFKLAYKVLRRPDGSFNRDLAEFLDRKVPANSFPLDGVFSFDHVDSTTNLLTRIYQPASLLHQTRHGTLELTKPLSTTEIVPVLIFFHGGSFTHSSANSAIYDTFCRRLVTICGVVVVSVDYRRSPEHRYPCAYDDGWNALNWVKSRVWLQSGKDSNVYVYLAGDSSGGNIAHNVAVRATNEGVKVLGNILLHPMFGGQERTQSEKTLDGKYFVTIQDRDWYWRAYLPEGEDRDHPACNPFGPRGQSLKGVNFPKSLVVVAGLDLVQDWQLAYVDGLKKTGLEVNLLYLKQATIGFYFLPNNDHFHCLMEELNKFVHSIEDSQSKSSPVLLTP
notes: Bait fusion for the Y2H assays; also called Arabidopsis GID1
